Measured values published in US20220242962A1 (APTEVO RESEARCH AND DEVELOPMENT, published 2022).

T1: Full-length Cyno 4-1BB (cynomolgus monkey, UniProt Q07011 24-255 (human entry))
T1 construct: on Jurkat or CHO cells; also called FOB006; cynomolgus 4-1BB
T1 chain: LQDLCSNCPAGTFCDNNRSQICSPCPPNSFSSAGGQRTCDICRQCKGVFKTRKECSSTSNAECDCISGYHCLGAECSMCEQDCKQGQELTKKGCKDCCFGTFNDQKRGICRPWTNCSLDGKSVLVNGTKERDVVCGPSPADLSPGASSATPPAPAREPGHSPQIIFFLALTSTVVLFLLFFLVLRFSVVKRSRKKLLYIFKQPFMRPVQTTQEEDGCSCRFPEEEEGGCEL

T2: Full-length Human OX40 (human, UniProt P43489 29-277)
T2 construct: also called OXF001; human OX40/CHO
T2 sequence: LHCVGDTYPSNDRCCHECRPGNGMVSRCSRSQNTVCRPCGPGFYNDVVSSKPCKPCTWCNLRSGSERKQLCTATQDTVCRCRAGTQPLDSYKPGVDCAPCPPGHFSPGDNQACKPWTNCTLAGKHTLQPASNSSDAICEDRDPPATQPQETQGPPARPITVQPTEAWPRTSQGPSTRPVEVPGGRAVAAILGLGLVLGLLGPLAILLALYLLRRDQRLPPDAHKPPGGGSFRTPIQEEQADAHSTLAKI

T3: Human OX40 ECD-AFH (human)
T3 construct: ECD'; entry includes the C-terminal tags; also called OXF003; Human OX40 ECD-avi-flag-his
T3 chain: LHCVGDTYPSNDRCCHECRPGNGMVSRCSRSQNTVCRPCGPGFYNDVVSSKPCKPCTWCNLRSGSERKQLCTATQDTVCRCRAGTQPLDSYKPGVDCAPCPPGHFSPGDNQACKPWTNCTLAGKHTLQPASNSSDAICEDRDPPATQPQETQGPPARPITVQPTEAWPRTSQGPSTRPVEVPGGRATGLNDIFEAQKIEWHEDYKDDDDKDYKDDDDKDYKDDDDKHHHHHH

T4: Full-length Cyno OX40 (cynomolgus monkey, UniProt P43489 29-277 (human entry))
T4 construct: on CHO-K1SV cells; also called OXF004; cynomolgus OX40
T4 chain: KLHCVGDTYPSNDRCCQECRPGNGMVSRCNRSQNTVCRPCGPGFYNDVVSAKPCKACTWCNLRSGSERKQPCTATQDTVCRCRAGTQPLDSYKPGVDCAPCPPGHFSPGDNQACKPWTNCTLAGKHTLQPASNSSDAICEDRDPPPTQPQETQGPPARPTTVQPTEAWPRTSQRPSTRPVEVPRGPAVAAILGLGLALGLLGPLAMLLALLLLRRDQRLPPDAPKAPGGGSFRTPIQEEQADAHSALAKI


Experiments:
[1] = target: T1, Full-length Cyno 4-1BB; assay: flow cytometry on Jurkat cells transfected with cynomolgus 4-1BB, goat anti-human Fc secondary antibody, MFI (Mean)
Description: (§1) Serial dilutions of ADAPTIR™ constructs were incubated with cells transfected with human or cynomolgus ECD and subsequently labelled with a fluorescently-conjugated goat-α-human Fc secondary antibody. […] (See Example 16.)

[2] = target: T2, Full-length Human OX40; assay: flow cytometry, CHO cells expressing human OX40
[3] = target: T5, Human 4-1BB ECD-AFH (human); assay: SPR (T200), construct captured, monomeric ECD as analyte
T5 construct: entry includes the tags; also called FOB003; HUMAN CD137 ECD-AVI-FLAG-HIS
T5 sequence (chain, as listed by the source limits assumed): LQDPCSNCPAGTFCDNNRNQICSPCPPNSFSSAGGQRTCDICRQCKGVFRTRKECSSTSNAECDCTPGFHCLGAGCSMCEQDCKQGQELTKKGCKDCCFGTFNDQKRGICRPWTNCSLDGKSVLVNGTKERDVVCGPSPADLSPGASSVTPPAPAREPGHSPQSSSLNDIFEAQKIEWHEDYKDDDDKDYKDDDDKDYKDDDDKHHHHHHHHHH
Description: (§2) Mouse anti-human IgG (GE, BR-1008-39) at 25 μg/ml in 10 mM sodium acetate pH 5.0 was immobilized at a density of ˜10,000 response units (RU) onto each flow cell of a CM5 research-grade sensor chip (GE) by standard amine coupling chemistry. Each binding protein at approximately 100 nM in HBS-EP+ with 0.2% BSA buffer was captured in a flow cell with the immobilized anti-human IgG at a flow rate of 10 μL/min for 20 seconds, leaving one flow cell surface unmodified as the reference. Using a single-cycle kinetics mode, five different concentrations of ECD were sequentially injected through each flow cell at 30 μL/min for 300 seconds followed by a 600 second dissociation period. Regeneration was achieved by injection of 3 M MgCl₂ at a flow rate of 30 μL/min for 30 seconds followed by HBS-EP+ with 0.2% BSA buffer stabilization for 1 min.
(§3) Sensorgrams obtained from kinetic SPR measurements were analyzed by the double subtraction method. The signal from the reference flow cell was subtracted from the analyte binding response obtained from flow cells with immobilized or captured ligands. Buffer reference responses were then averaged from multiple injections. The averaged buffer reference responses were then subtracted from analyte binding responses, and the final double-referenced data were analyzed with Biacore T200 Evaluation software (2.0, GE), globally fitting data to derive kinetic parameters. All sensorgrams were fitted using a simple one-to-one binding model.

[4] = target: T3, Human OX40 ECD-AFH; assay: as above
Description: as §2, §3

[5] = target: T6, Full-length Human 4-1BB (human, UniProt Q07011 24-255); assay: flow cytometry, Jurkat cells expressing human 4-1BB
T6 construct: also called FOB005; CD137
Description: as §1

[6] = target: T4, Full-length Cyno OX40; assay: flow cytometry on CHOK1SV cells transfected with cynomolgus OX40, goat anti-human Fc secondary antibody, MFI (Mean)
Description: as §1

[7] = target: T2, Full-length Human OX40; assay: cell-based or functional assay
[8] = target: T6, Full-length Human 4-1BB; assay: cell-based or functional assay

binding result [1] | EC50 [2] | Max MFI [2] | Kd [3] | koff [3] | kon [3] | Kd [4] | koff [4] | kon [4] | EC50 [5] | Max MFI [5] | EC50 (read off the curve) [6] | OX40 Reporter Assay EC50 [7] | OX40 Reporter Assay Max induction [7] | 4-1BB Reporter Assay EC50 [8] | 4-1BB Reporter Assay Max induction [8] | EC50 (read off the curve) [1] | Binder
binds | 1.4 nM | 9820 MFI | 37 nM | 0.0038 s⁻¹ | 100000 M⁻¹ s⁻¹ | 0.3 nM | 0.00012 s⁻¹ | 450000 M⁻¹ s⁻¹ | 0.53 nM | 4120 MFI | ~2 nM | 0.023 nM | 470000 | 0.025 nM | 6.26e+06 |  | FXX01079 (bispecific antibody, ADAPTIR scFv-Fc-scFv, anti-OX40 N-terminal, anti-4-1BB C-terminal; also called FX01079) SYVLTQPPSVSVAPGQTARITCGGNNIGSKSVNWFQQKPGQAPVLVVYDDSGRPSGIPERFSGSTSGNTATLTISRVEAGDEADYYCQVWDSSSDHVVFGGGTKLTVLGGGGSGGGGSGGGGSGGGGSQVQLVESGGGVVQPGRSLRLSCAASGFTLSYYGMHWVRQAPGKGLEWVAVISHDGSDKYYADSVKGRFTISRDNSKNTLYLQMNSLRAEDTAVYYCSNDQFDPWGQGTLVTVEPKSSDKTHTCPPCPAPPAAAPSVFLFPPKPKDTLMISRTPEVTCVVVDVSHEDPEVKFNWYVDGVEVHNAKTKPREEQYNSTYRVVSVLTVLHQDWLNGKEYKCAVSNKALPAPIEKTISKAKGQPREPQVYTLPPSRDELTKNQVSLTCLVKGFYPSDIAVEWESNGQPENNYKTTPPVLDSDGSFFLYSKLTVDKSRWQQGNVFSCSVMHEALHNHYTQKSLSLSPGGGGSPSEVQLVQSGAEVKKPGASVKVSCKASGYTFTSYWMNWVRQAPGQGLEWMGNIYPSGGSTNYAQKFQGRVTMTVDTSTSTVYMELSSLRSEDTAVYYCASFSDGYYAYAMDYWGQGTLVTVSSGGGGSGGGGSGGGGSGGGGSEIVMTQSPATLSLSPGERATLSCRASQSVSSYLNWYQQKPGQAPRLLIYYASRRHTGIPARFSGSGSGTDFTLTISSLQPEDFAVYYCQQGYNLPYTFGQGTKVEIKR
 | 0.4 nM | 10400 MFI | 21 nM | 0.0018 s⁻¹ | 84000 M⁻¹ s⁻¹ | 0.3 nM | 0.00013 s⁻¹ | 440000 M⁻¹ s⁻¹ | 0.27 nM | 4750 MFI | ~2 nM | 0.013 nM | 2.03e+06 | 0.013 nM | 6.82e+06 | ~1 nM | FXX01055 (bispecific antibody, ADAPTIR scFv-Fc-scFv, anti-OX40 N-terminal, anti-4-1BB C-terminal; also called FX01055) SYVLTQPPSVSVAPGQTARITCGGNNIGSKSVNWFQQKPGQAPVLVVYDDSGRPSGIPERFSGSTSGNTATLTISRVEAGDEADYYCQVWDSSSDHVVFGGGTKLTVLGGGGSGGGGSGGGGSGGGGSQVQLVESGGGVVQPGRSLRLSCAASGFTLSYYGMHWVRQAPGKGLEWVAVISHDGSDKYYADSVKGRFTISRDNSKNTLYLQMNSLRAEDTAVYYCSNDQFDPWGQGTLVTVEPKSSDKTHTCPPCPAPPAAAPSVFLFPPKPKDTLMISRTPEVTCVVVDVSHEDPEVKFNWYVDGVEVHNAKTKPREEQYNSTYRVVSVLTVLHQDWLNGKEYKCAVSNKALPAPIEKTISKAKGQPREPQVYTLPPSRDELTKNQVSLTCLVKGFYPSDIAVEWESNGQPENNYKTTPPVLDSDGSFFLYSKLTVDKSRWQQGNVFSCSVMHEALHNHYTQKSLSLSPGGGGSPSEVQLVQSGAEVKKPGASVKVSCKASGYTFTSYWMNWVRQAPGQGLEWMGNIYPGSSTTNYAQKFQGRVTMTVDTSTSTVYMELSSLRSEDTAVYYCASFSDGYYAYAMDYWGQGTLVTVSSGGGGSGGGGSGGGGSGGGGSEIVMTQSPATLSLSPGERATLSCRASQDISNYLNWYQQKPGQAVRLLIYYTSRLHSGIPARFSGSGSGTDYTLTISSLQPEDFAVYFCQQGYTLPYTFGQGTKVEIKR
